{
  "source": "patent US20070196354A1",
  "about": "“Method of treating diabetes by inhibiting degradation of at least one of crebl1, atf6, and hnf-4 alpha by htra” (priority 2003, published 2007)",
  "molecules": {"B1": {"name": "mature HtrA2 (S306A): SEQ ID NO: 6; HtrA2 mutant with substitution of the 174th serine residue of mature HtrA2 with alanine (protein)", "chain": "MAVPSPPPASPRSQYNFIADVVEKTAPAVVYIEILDRHPFLGREVPISNGSGFVVAADGLIVTNAHVVADRRRVRVRLLSGDTYEAVVTAVDPVADIATLRIQTKEPLPTLPLGRSADVRQGEFVVAMGSPFALQNTITSGIVSSAQRPARDLGLPQTNVEYIQTDAAIDFGNAGGPLVNLDGEVIGVNTMKVTAGISFAIPSDRLREFLHRGEKKNSSSGISGSQRRYIGVMMLTLSPSILAELQLREPSFPDVQHGVLIHKVILGSPAHRAGLRPGDVILAIGEQMVQNAEDVYEAVRTQSQLAVQIRRGRETLTLYVTPEVTE", "modifications": "Polypeptide consisting of the same amino acid sequence of SEQ ID NO4 wherein the 174th amino acid residue is substituted by Ala; mature HtrA2(S306A)", "notes": "HtrA2 mutant with substitution of the 174th serine residue of mature HtrA2 with alanine"}},
  "test_system": "casein",
  "assay": "Casein zymography and protease assay with casein sodium",
  "format": "biochemical",
  "conditions": "casein zymography and casein sodium protease assay, 37° C., E. coli-expressed His-tagged protein",
  "procedure": "Determination of the activity of mature HtrA2 and mature HtrA2 (S306A) was carried out with casein zymography and with a protease assay with casein sodium. Casein zymography was carried out according to the protocol (Invitrogen). More concretely, mature HtrA2 and mature HtrA2 (S306A) were mixed under non-reductive condition with equivalent volume of 2×SDS sample buffer, left to stand at room temperature for 10 min, followed by separation with 4-16% zymogram (Blue casein) gel (Zymogram Gel, Invitrogen). After completion of electrophoresis, they were renatured with 2.5% Triton X-100, and then subjected to a degradation reaction of casein in the developing buffer at 37= C. for overnight.\nMeanwhile, a protease assay using casein sodium as an substrate was carried out in such that mature HtrA2 or mature HtrA2 (S306A) was mixed with casein sodium in a reaction buffer (150 mM NaCl, 50 mM Tris-HCl (pH 7.5)) so as to the concentration of the former might become 200 μg/ml and the concentration of the latter might become 400 μg/ml, and incubated at 37° C. for reactions. A portion of the reaction solution was sampled at three hours and overnight after initiation of the reaction, mixed with equivalent volume of 2×SDS sample buffer followed by boiling, and then subjected to SDS-PAGE. After that, the degradation of casein sodium was detected by Coomassie Brilliant Blue (CBB) staining.\nThe enzyme activity of the various types of HtrA2 each of which was expressed in a cultured cell was determined by the protease assay using casein sodium as a substrate (see Example 2).",
  "data": [
    {"molecule": "B1", "values": [
      {"measurement": "degradation of casein", "result": "degradation of casein was not observed"}
    ]}
  ]
}
